Experimental data taken from patent US20090280543A1, “REGIOSELECTIVE GLYCOSYLATION” (THE UNIVERSITY OF YORK, priority 2005, published 2009).

Experiments:
[1] = Autohydrolysis of esculin in MES buffer, RP-HPLC; format: physicochemical; details: 50 mM MES buffer (pH 7.0), 44 h at 25° C.
Experimental: (§1) FIG. 5: Investigation of ecsulin hydrolysis. Neither a) autohydrolysis in MES buffer nor b) hydrolysis in bacterial culture of esculin (12) was detected. Samples at 24 h, 44 h incubation and additionally a standard of the aglycone esculetin (11) are illustrated;
(§2) For these controls, samples were incubated for 44 h at 25° C. as in the standard experimental conditions, and analyzed by RP-HPLC to confirm the lack of aglycone (esculetin, 11) (FIG. S1).

[2] = tested on: E. coli transformed with pGEX-2T vector; experiment: Hydrolysis of esculin in bacterial culture, RP-HPLC; details: 44 h at 25° C.
Experimental: as §1, §2

[3] = D-glucose adsorption by PVPP, HPAEC of samples treated with and without PVPP; format: physicochemical
Experimental: FIG. 8: Lack of D-glucose adsorption by PVPP.
High Performance Anion Exchange Chromatography (HPAEC): HPAEC coupled with integrated amperometric detection (IAD) (Dionex, U.K.) was used to detect D-glucose using a CarboPac™ PA10 column (2×250 mm, Dionex). Seven different monosaccharides including L-Fucose, L-rhamnose, D-galactose, L-arabinose, D-glucose, D-manose and D-xylose were used as references. The D-glucose was separated isocratically at a flow rate 0.35 mL/min with 24 mM NaOH (pH>12.5) over 18 min. The column was then washed with a linear gradient of NaOH from 24 mM to 200 mM over 5 min. The IAD waveform was set following manufacturer's recommendation.
Stage 3, detection: 50 μl of the reaction mix were transferred to a 96-well filtration plate (Abgene, U.K.), mixed with an equal volume of PVPP aqueous suspension (25 g/L), shaken for 1 h at 25° C. before centrifugation (1000 g, 5 min). To each filtrate, 50 mM 2-morpholino-ethanesulfonic acid buffer (MES) (pH 7.0), ABTS™ (0.1 mM), peroxidase (2 U) and glucose oxidase (2 U) were added to a final volume of 125 μl. The formation of the green dye was monitored at 405 nm at 30 min using a plate reader (Bio-Tec Instruments Inc., U.S.A).

[4] = Whole-cell biocatalysis screen of GT library against the aglycone daidzein (RP-HPLC of glucosides); format: cell-based, E. coli; details: for regioselectivity for the 7-OH of daidzein: percentage of a regiospecific glucoside in the total amount of monoglucosides formed
Text: FIG. 3: Screening of a GT-library against the aglycone daidzein. a) The readings at A405 nm for D-glucose detection are presented in a colored code format. b) Examples of RP-HPLC trace of active and non-active GTs in whole-cell biocatalysis are illustrated. c) The regioselectivity of the active GTs towards daidzein, defined by the percentage of a regiospecific glucoside in the total amount of monoglucosides formed;
Reverse-phase HPLC (RP-HPLC): RP-HPLC (Agilent 1100 system with Photodiode Array Detector, Agilent, U.K.) analysis was carried out using a Columbus 5-μ C18 column (150×3.20 mm, Phenomenex, U.K.). Glucosides were separated from their respective aglycones using a linear gradient of acetonitrile/0.1% formic acid (v/v) in H2O: 10-45% (trans-resveratrol/glucosides), 10-50% (daidzein/glucosides) at 0.5 mL/min over 20 min and monitored at 280 nm and 250 nm. Separation of scopoletin/scopolin and esculetin/esculin was carried out using the conditions described previously.^[11]
The cDNA library of 96 Arabidopsis thaliana GTs was subcloned into the multiple cloning site of the glutathione-S-transferase (GST) gene fusion vector pGEX-2T (Amersham Biosciences, U.K.) as described previously^[10] and transformed into the strain E. coli BL21 (DE3) for use in the screening method.
Stage 1, biotransformation: single colonies of the GT library grown on LB-agar plates overnight were transferred to individual wells in a 96-well bacterial culture plate containing 400 μl 2×YT medium (16 g/L bacto tryptone, 10 g/L yeast extract, 5 g/L NaCl) and 50 μg/mL ampicillin. The plate was covered with an adhesive plate seal (Abgene, U.K.) and incubated at 37° C. (250 rpm). The bacterial growth was monitored at 595 nm by a plate reader. After 4 h, the cultures had reached exponential phase. The plate was centrifuged (4000 g, 10 min), the supernatants discarded and cell pellets were resuspended in isopropyl-D-thiogalactopyranoside (0.1 mM), 2-(N-morpholino)ethanesulfonic acid (50 mM, pH 7.0), ampicillin (50 μg/mL), L-arabinose (10 g/L) and 500 µM of aglycone to a total whole-cell reaction volume of 400 μl/well. The 96-well plate was closed with a gas permeable adhesive plate seal, wrapped in alu foil for light protection and incubated at 25° C. (250 rpm). After 44 h the cultures were centrifuged (4000 g, 15 min) and the supernatants analyzed. […]
Stage 3, detection: 50 μl of the reaction mix were transferred to a 96-well filtration plate (Abgene, U.K.), mixed with an equal volume of PVPP aqueous suspension (25 g/L), shaken for 1 h at 25° C. before centrifugation (1000 g, 5 min). […] The formation of the green dye was monitored at 405 nm at 30 min using a plate reader (Bio-Tec Instruments Inc., U.S.A). […]

## O=c1ccc2cc(O[C@@H]3O[C@H](CO)[C@@H](O)[C@H](O)[C@H]3O)c(O)cc2o1 [esculin, esculetin-6-O-glucoside]
[1]
  autohydrolysis during incubation: lack of autohydrolysis
[2]
  hydrolysis in the presence of the bacterial culture: not hydrolyzed

## O=C[C@H](O)[C@@H](O)[C@H](O)[C@H](O)CO [D-glucose]
[3]
  loss of D-glucose by filtration through PVPP: no significant loss

B1: GT 73C4: Arabidopsis thaliana glycosyltransferase, SEQ ID NO: 30 (nucleotide), 121 (amino acid) (protein, listed as Arabidopsis thaliana)
chain: MASEKSHKVHPPLHFILFPFMAQGHMIPMIDIARLLAQRGATVTIVTTRYNAGRFENVLSRAMESGLPINIVHVNFPYQEFGLPEGKENIDSYDSMELMVPFFQAVNMLEDPVMKLMEEMKPRPSCIISDLLLPYTSKIARKFSIPKIVFHGTGCFNLLCMHVLRRNLEILKNLKSDKDYFLVPSFPDRVEFTKPQVPVETTASGDWKAFLDEMVEAEYTSYGVIVNTFQELEPAYVKDYTKARAGKVWSIGPVSLCNKAGADKAERGNQAAIDQDECLQWLDSKEDGSVLYVCLGSICNLPLSQLKELGLGLEKSQRSFIWVIRGWEKYNELYEWMMESGFEERIKERGLLIKGWSPQVLILSHPSVGGFLTHCGWNSTLEGITSGIPLITWPLFGDQFCNQKLVVQVLKAGVSAGVEEVMKWGEEEKIGVLVDKEGVKKAVEELMGASDDAKERRRRVKELGESAHKAVEEGGSSHSNITYLLQDIMQQVKSKN
[4]; whole-cell biocatalysis, 500 µM aglycone, 44 h, 25° C.
  daidzein glucosides formed / positions glycosylated: produced the diglucoside in addition to the monoglucosides

B2: GT 84A1: Arabidopsis thaliana glycosyltransferase, SEQ ID NO: 81 (nucleotide), 130 (amino acid) (protein, listed as Arabidopsis thaliana)
chain: MVFETCPSPNPIHVMLVSFQGQGHVNPLLRLGKLIASKGLLVTFVTTELWGKKMRQANKIVDGELKPVGSGSIRFEFFDEEWAEDDDRRADFSLYIAHLESVGIREVSKLVRRYEEANEPVSCLINNPFIPWVCHVAEEFNIPCAVLWVQSCACFSAYYHYQDGSVSFPTETEPELDVKLPCVPVLKNDEIPSFLHPSSRFTGFRQAILGQFKNLSKSFCVLIDSFDSLEQEVIDYMSSLCPVKTVGPLFKVARTVTSDVSGDICKSTDKCLEWLDSRPKSSVVYISFGTVAYLKQEQIEEIAHGVLKSGLSFLWVIRPPPHDLKVETHVLPQELKESSAKGKGMIVDWCPQEQVLSHPSVACFVTHCGWNSTMESLSSGVPVVCCPQWGDQVTDAVYLIDVFKTGVRLGRGATEERVVPREEVAEKLLEATVGEKAEELRKNALKWKAEAEAAVAPGGSSDKNFREFVEKLGAGVTKTKDNGY
[4]
  regioselectivity for the 7-OH of daidzein: 100%

B3: GT 73B1: Arabidopsis thaliana glycosyltransferase, SEQ ID NO: 22 (nucleotide), 114 (amino acid) (protein, listed as Arabidopsis thaliana)
chain: MGTPVEVSKLHFLLFPFMAHGHMIPTLDMAKLFATKGAKSTILTTPLNAKLFFEKPIKSFNQDNPGLEDITIQILNFPCTELGLPDGCENTDFIFSTPDLNVGDLSQKFLLAMKYFEEPLEELLVTMRPDCLVGNMFFPWSTKVAEKFGVPRLVFHGTGYFSLCASHCIRLPKNVATSSEPFVIPDLPGDILITEEQVMETEEESVMGRFMKAIRDSERDSFGVLVNSFYELEQAYSDYFKSFVAKRAWHIGPLSLGNRKFEEKAERGKKASIDEHECLKWLDSKKCDSVIYMAFGTMSSFKNEQLIEIAAGLDMSGHDFVWVVNRKGSQEEKEDWLPEGFEEKTKGKGLIIRGWAPQVLILEHKAIGGFLTHCGWNSLLEGVAAGLPMVTWPVGAEQFYNEKLVTQVLKTGVSVGVKKMMQVVGDFISREKVEGAVREVMVGEERRKRAKELAEMAKNAVKEGGSSDLEVDRLMEELTLVKLQKEKV
[4]
  regioselectivity for the 7-OH of daidzein: 100%

B4: GT 73B2: Arabidopsis thaliana glycosyltransferase, SEQ ID NO: 23 (nucleotide), 115 (amino acid) (protein, listed as Arabidopsis thaliana)
chain: MGSDHHHRKLHVMFFPFMAYGHMIPTLDMAKLFSSRGAKSTILTTSLNSKILQKPIDTFKNLNPGLEIDIQIFNFPCVELGLPEGCENVDFFTSNNNDDKNEMIVKFFFSTRFFKDQLEKLLGTTRPDCLIADMFFPWATEAAGKFNVPRLVFHGTGYFSLCAGYCIGVHKPQKRVASSSEPFVIPELPGNIVITEEQIIDGDGESDMGKFMTEVRESEVKSSGVVLNSFYELEHDYADFYKSCVQKRAWHIGPLSVYNRGFEEKAERGKKANIDEAECLKWLDSKKPNSVIYVSFGSVAFFKNEQLFEIAAGLEASGTSFIWVVRKTKDDREEWLPEGFEERVKGKGMIIRGWAPQVLILDHQATGGFVTHCGWNSLLEGVAAGLPMVTWPVGAEQFYNEKLVTQVLRTGVSVGASKHMKVMMGDFISREKVDKAVREVLAGEAAEERRRRAKKLAAMAKAAVEEGGSSFNDLNSFMEEFSS
[4]
  regioselectivity for the 7-OH of daidzein: 100%
